Here are results for two proteins from doi:10.1101/2020.12.22.424058, “Structural basis for the dimerization-dependent CRISPR-Cas12f nuclease” (bioRxiv, 2020).

Data set [1] deals with the molecule itself. The data set is described as follows: cryo-EM structure; Cas12f D510A with sgRNA (222 nt) and target dsDNA (60 bp, TTTA PAM) at 1:1.2:1.3, 37°C, then SEC (Superdex 200) in 25 mM Tris-HCl pH 7.6, 150 mM NaCl, 2 mM DTT, 1 mM MgCl2; ternary complex, 3.1 Å; the two Cas12f copies are bound to one sgRNA.
Data set [2] deals with the molecule itself. Nature of the data set: cryo-EM structure; Cas12f with sgRNA at 1:1.2, 37°C for 30 min in 25 mM Tris-HCl pH 7.6, 150 mM NaCl, 2 mM DTT, 1 mM MgCl2; binary complex, 3.9 Å; the two Cas12f copies are bound to one sgRNA.

For orientation: stoichiometry N means a count of units in the complex or per binding partner.

B1: Un1Cas12f1^D510A (enzyme, UniProt A0A482D308 1-529, looked up)
chain: MAKNTITKTLKLRIVRPYNSAEVEKIVADEKNNREKIALEKNKDKVKEACSKHLKVAAYCTTQVERNACLFCKARKLDDKFYQKLRGQFPDAVFWQEISEIFRQLQKQAAEIYNQSLIELYYEIFIKGKGIANASSVEHYLSDVCYTRAAELFKNAAIASGLRSKIKSNFRLKELKNMKSGLPTTKSDNFPIPLVKQKGGQYTGFEISNHNSDFIIKIPFGRWQVKKEIDKYRPWEKFDFEQVQKSPKPISLLLSTQRRKRNKGWSKDEGTEAEIKKVMNGDYQTSYIEVKRGSKIGEKSAWMLNLSIDVPKIDKGVDPSIIGGIDVGVKSPLVCAINNAFSRYSISDNDLFHFNKKMFARRRILLKKNRHKRAGHGAKNKLKPITILTEKSERFRKKLIERWACEIADFFIKNKVGTVQMENLESMKRKEDSYFNIRLRGFWPYAEMQNKIEFKLKQYGIEIRKVAPNNTSKTCSKCGHLNNYFNFEYRKKNKFPHFKCEKCNFKENAAYNAALNISNPKLKSTKEEP
notes: Cas12f (UnCas12f1, Un1Cas12f1; also known as Cas14), 529 amino acids, 61.5 kDa; plasmid Addgene #112500; Two copies (Cas12f.1 and Cas12f.2) stand in the complex with one sgRNA and the target dsDNA; The model lacks three N-terminal and four C-terminal residues; also called Cas12f D510A mutant; source: E. coli BL21(DE3), purified (Ni-NTA, HiTrap SP HP, Superdex 200); not shown: 10xHis, N-terminal, …
As for B1, in data set [1], the “stoichiometry N” value was 2.

B2: Cas12f (UnCas12f1) (enzyme, UniProt A0A482D308 1-529, looked up)
chain: MAKNTITKTLKLRIVRPYNSAEVEKIVADEKNNREKIALEKNKDKVKEACSKHLKVAAYCTTQVERNACLFCKARKLDDKFYQKLRGQFPDAVFWQEISEIFRQLQKQAAEIYNQSLIELYYEIFIKGKGIANASSVEHYLSDVCYTRAAELFKNAAIASGLRSKIKSNFRLKELKNMKSGLPTTKSDNFPIPLVKQKGGQYTGFEISNHNSDFIIKIPFGRWQVKKEIDKYRPWEKFDFEQVQKSPKPISLLLSTQRRKRNKGWSKDEGTEAEIKKVMNGDYQTSYIEVKRGSKIGEKSAWMLNLSIDVPKIDKGVDPSIIGGIDVGVKSPLVCAINNAFSRYSISDNDLFHFNKKMFARRRILLKKNRHKRAGHGAKNKLKPITILTEKSERFRKKLIERWACEIADFFIKNKVGTVQMENLESMKRKEDSYFNIRLRGFWPYAEMQNKIEFKLKQYGIEIRKVAPNNTSKTCSKCGHLNNYFNFEYRKKNKFPHFKCEKCNFKENADYNAALNISNPKLKSTKEEP
notes: Cas12f (UnCas12f1, Un1Cas12f1; also known as Cas14), 529 amino acids, 61.5 kDa; plasmid Addgene #112500; The methods say only 'Cas12f proteins' for the binary complex with sgRNA; also called Un1Cas12f1; Cas14; source: E. coli BL21(DE3), purified (Ni-NTA, HiTrap SP HP, Superdex 200); not shown: 10xHis, N-terminal, cleaved; MBP, N-terminal, cleaved
In the case of B2, the binding result in data set [2] was “binds”.
